In patent US20210140973A1 (NITTO BOSEKI, published 2021):
Changes are numbered by the printed parent chain.

Experiments:
Assay in all cases: Western blot: E. coli lysate with the GST-tagged peptide, SDS-PAGE, PVDF membrane, POD-labelled antibody diluted 1000-fold, ECL
[1] = target: T1, GST-tagged peptide H1 (full-length human IgG4 heavy chain constant region) (human, UniProt P01861 1-325 = IgG part)
T1 construct: Expressed in E. coli BL21; lysate, reduced and heat-denatured, on SDS-PAGE / Western blot; not shown: GST tag (glutathione S-transferase) linked to the N terminal, expressed from vector pGEX-6P-1

H-39 = target: T2, H-39
T2 construct: not shown: N-terminal GST tag and the vector-coded linker of pGEX-6P-1
T2 chain: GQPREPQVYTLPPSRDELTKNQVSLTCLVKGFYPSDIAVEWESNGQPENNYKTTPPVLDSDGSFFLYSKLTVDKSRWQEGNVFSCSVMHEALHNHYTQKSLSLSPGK

[2] = target: T3, GST-tagged peptide H36 (positions 221 to 327 with the human IgG4 specific sequence replaced by the … (human, UniProt P0DOX5 343-449 = IgG part))
T3 construct: not shown: GST tag (glutathione S-transferase) linked to the N terminal, expressed from vector pGEX-6P-1

[3] = target: T4, GST-tagged peptide H38 (H10 with R289K, E299Q and L325P) (human, UniProt P0DOX5 343-449 = IgG part)
T4 construct: not shown: N-terminal GST tag (from vector pGEX-6P-1) and any vector linker
T4 chain: T2 chain with R15Q, D16E, L18M, E79Q

[4] = target: T5, GST-tagged peptide H31 (H10 with arginine for glutamine at position 235) (human, UniProt P01861 221-325 = IgG part)
T5 construct: not shown: GST tag (glutathione S-transferase) linked to the N terminal, expressed from vector pGEX-6P-1
T5 chain: T2 chain with D16E, L18M, K69R, P105L

[5] = target: T6, GST-tagged peptide H34 (H10 with proline for leucine at position 325) (human, UniProt P01861 221-324 = IgG part)
T6 construct: not shown: GST tag (glutathione S-transferase) linked to the N terminal, expressed from vector pGEX-6P-1

[6] = target: T7, GST-tagged peptide H3 (positions 1 to 220 of the human IgG4 heavy chain constant region) (human, UniProt P01861 1-220 = IgG part)
T7 construct: E. coli lysate on Western blot; not shown: GST tag (glutathione S-transferase) linked to the N terminal, expressed from vector pGEX-6P-1

[7] = target: T8, GST-tagged peptide H37 (H10 with R289K and L325P) (human, UniProt P01861 221-324 = IgG part)
T8 construct: not shown: N-terminal GST tag (from vector pGEX-6P-1) and any vector linker
T8 chain: T2 chain with R15Q, D16E, L18M

[8] = target: T9, GST-tagged peptide H33 (H10 with glutamine for glutamic acid at position 299) (human, UniProt P01861 221-325 = IgG part)
T9 construct: not shown: GST tag (glutathione S-transferase) linked to the N terminal, expressed from vector pGEX-6P-1
T9 chain: T2 chain with R15Q, D16E, L18M, K69R, E79Q, P105L

T7 sequence (P01861 1-220): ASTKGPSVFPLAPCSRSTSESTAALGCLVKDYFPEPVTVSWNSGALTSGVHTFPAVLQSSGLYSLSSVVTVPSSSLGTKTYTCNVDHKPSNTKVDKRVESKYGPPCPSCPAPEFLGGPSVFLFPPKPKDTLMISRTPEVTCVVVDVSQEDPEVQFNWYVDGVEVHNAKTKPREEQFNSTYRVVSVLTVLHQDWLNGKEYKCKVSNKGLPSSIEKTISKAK

B1: MaI4-08-produced antibody (antibody, IgG1, V domains shown)
VH: EVQLQQSGPELVKPGTSVKMSCKASGYIFTSYILHWVKQKPGQGLEWIAYINPYNDGTKYKEKFKGKGTLTSDKSSSTAYMELSSLTSEDSAVYYCARSGGGYGNYAWFAYWGPGTLVTVST
VL: DIQMTQSPSSLSASLGERVSLTCRASQDIGSSLNWLQQEPDGTIKRLIYATSSLDSGVPKRFSGSRSGSDYSLTISSLESEDFVDYYCLQYASYPPTFGAGTKLELK
notes: Purified on protein G from hybridoma culture supernatant; POD-labelled for the Western blots
binding result [1]: binds | binding result (H-39): binds | binding result [2]: no binding | binding result [3]: no binding | binding result [4]: binds | binding result [5]: binds | binding result [6]: no binding | binding result [7]: binds | binding result [8]: no binding
